Measurements: patent US20230105457A1, “Immunogenic Compounds For Treatment Of Adrenal Cancer” (ENTEROME S.A., priority 2019, published 2023)
Where two headings read alike, the source gives them in different places.

Assays:
HLA-A*0201 = HLA-A*0201 (Homo sapiens, UniProt P04439, D140Y/D185E/D98H/E176V/E277Q/G131W/G231S/I119V/I121R/I166T/I218V/L300P/L318F/N151K/N90K/P208A/P217A/Q86G/Q94H/R138H/R169H/T345S); conditions: for Mean fluorescence intensity: T2 cells
[1] = tested on: splenocytes of HHD DR3 mice expressing human HLA-A2 and HLA-DR3; experiment: IFN-γ ELISpot immunogenicity and cross-reactivity in HHD DR3 mice (Examples 6, 10, 11); assay type: in vivo, mouse; conditions: 100 μg s.c. days 0 and 14, helper peptide DR3 and IFA
Protocol: Concanavalin A (ConA) was used as a positive control.
The antigenic peptide of the invention BIRC5-B1 (SEQ ID NO: 289) and the corresponding human peptide BIRC5-H (SEQ ID NO: 286) were tested in distinct groups of male and female HHD DR3 mice expressing human HLA-A2 and HLA-DR3 MHC and lacking the murine H-2 class I and class II MHCs. Groups of 5 mice (male and female) were subcutaneously injected on days 0 and 14 with 100 μg of BIRC5-B1 or BIRC5-H, 150 μg of helper peptide (DR3) and IFA. On day 21, the mice were euthanized and splenocytes were prepared and stimulated in vitro with BIRC5-B1 or the human peptide BIRC5-H to assess their capacity to secrete IFN- as assessed by ELISpot. ConA was used as a positive control.
The antigenic peptide of the invention FOXM1-B2 (SEQ ID NO: 312) and the corresponding human peptide FOXM1-H2 (SEQ ID NO: 293) were tested in distinct groups of male and female HHD DR3 mice expressing human HLA-A2 and HLA-DR3 MHC and lacking the murine H-2 class I and class II MHCs. Groups of 5 mice (male and female) were subcutaneously injected on days 0 and 14 with 100 μg of FOXM1-B2 or FOXM1-H2, 150 μg of helper peptide (DR3) and IFA. On day 21, the mice were euthanized and splenocytes were prepared and stimulated in vitro with FOXM1-B2 or the human corresponding peptide FOXM1-H2 to assess their capacity to secrete IFN- as assessed by ELISpot. ConA was used as a positive control.

With “WLPFGFILI [IL13RA2-H, reference compound]” the “Concentration of peptide that induces 20% of HLA-A2 expression” value (HLA-A*0201; T2 cell line, HLA-A*0201, Example 13, protocol as in Example 3) was 62.3 µM, the “Concentration that induces 20% of expression of the HLA-A*0201” value (HLA-A*0201; T2 cells (Example 1)) was 100 µM and the Mean fluorescence intensity (HLA-A*0201; peptide at 0.1 μM (Example 1)) was 7.46. It also gave a Mean fluorescence intensity (HLA-A*0201; peptide at 1 μM (Example 1)) of 9.41, a Mean fluorescence intensity (HLA-A*0201; peptide at 10 μM (Example 1)) of 11.61 and a Mean fluorescence intensity (HLA-A*0201; peptide at 100 μM (Example 1)) of 18.64. For the same sequence, the “Immunogenicity, IFN-γ ELISpot SFC (in words)” value [1] was “does not induce an immune response”.
